Laboratory results reported in the DeepSol protein solubility set.

Test: soluble on expression in E. coli; label from the status in PepcDB or PDB records

Sequence | soluble on expression in E. coli
MRTLKIEPLTKEAFAPFGDVIETAGSDYFMINNGSTRRYHKLATVETAQPEDNAIISIFSAEKLEMPLRIRMLERHPLGSQAFIPLLGNPFLVVVAPLGDVPVPGLVRAFLTNGRQGVNYHRGVWHHPVLTIEKRDDFLVVDRSGSGNNCDEHFFTEDEQLLLDPQSNQLEHHHHHH | not soluble
MRTSNYLLSTLKETPNDAEVVSHQLMLRAGMIRKLASGLYTWLPTGLRVLRKVENIVRQEIDNAGAVETLMPVVQPFELWEETGRSEKMGPELLRFTDRHVRPFVLSPTAEEVITSLVRNEVSSYKQLPLNLYQIQTKFRDERRPRFGVMRAREFCMMDAYSFDIDKAGLEKSYQAMHDAYCKAFDRMGLEYRPVLADSGAIGGSGSQEFHVLADSGEDLIAFSTESDYAANIEKAEALAPAVERAEPTQEMTLVDTPNAKTIAELVEQHGLPIEKTVKTLFVKASDEIDAPIIALIVRGDHELNEVKAENLPQVASPLEMASEEEIRELIGAGPGSLGPVGLELPFIVDRSVAVMSDFGAGANIDGKHYFGINWGRDVELGQVEDLRNVVEGDPSPCGKGTLMLK | not soluble
MRVDELRVDERIKSTLKERGIESFYPPQAEALKSGILEGKNALISIPTASGKTLIAEIAMVHRILTQGGKAVYIVPLKALAEEKFQEFQDWEKIGLRVAMATGDYDSKDEWLGKYDIIIATAEKFDSLLRHGSSWIKDVKILVADEIHLIGSRDRGATLEVILAHMLGKAQIIGLSATIGNPEELAEWLNAELIVSDWRPVKLRRGVFYQGFVTWEDGSIDRFSSWEELVYDAIRKKKGALIFVNMRRKAERVALELSKKVKSLLTKPEIRALNELADSLEENPTNEKLAKAIRGGVAFHHAGLGRDERVLVEENFRKGIIKAVVATPTLSAGINTPAFRVIIRDIWRYSDFGMERIPIIEVHQMLGRAGRPKYDEVGEGIIVSTSDDPREVMNHYIFGKPEKLFSQLSNESNLRSQVLALIATFGYSTVEEILKFISNTFYAYQRKDTYSLEEKIRNILYFLLENEFIEISLEDKIRPLSLGIRTAKLYIDPYTAKMFKDKMEEVVKDPNPIGIFHLISLTPDITPFNYSKREFERLEEEYYEFKDRLYFDDPYISGYDPYLERKFFRAFKTALVLLAWINEVPEGEIVEKYSVEPGDIYRIVETAEWLVYSLKEIAKVLGAYEIVDYLETLRVRVKYGIREELIPLMQLPLVGRRRARALYNSGFRSIEDISQARPEELLKIEGIGVKTVEAIFKFLGKNVKISEKPRKSTLDYFLKS | soluble
MRVEIVPIRPEFDAEICQIIQSVGAEFGAIGEGFGPSDAEVLAMSQYYREQDRSAYFVALLEGKVVGGGGIAPFAGHTDLCELKKLFLLPTSRGHGVGRALSEHCLNFAKQQGYTKCYLDTLSSMTQAIKLYQQLGFEHLTQPMAGTEHNGCDVWMLKSLN | not soluble
MRVEPLPGVPAATVDTDGERLLAVADYHAGIEAGLRYEGVELQSAAEARRERLLTCLRRARADRLVVIGDLGHAIGDPFADERAELETLFDALDVPVTLVKGNHD | not soluble
MRVLYERCCGLDVHKKSITACVLTPEGKEIRTFGTMTDDLEELVEWLKQKQVTHVAMESTGVYWKPIYNLLEAEPIDVLVVNAQHIKAVPGRKTDVKDAEWIADLLRHGLLRGSYIPDRAQRELRELVRYRRSLIEERARELNRIQKVLEGANIKLASVVSDINGVSAQQILRALIEGTDDPAVLAQLAKGRLKQKIGELRRALKGIMGPHQRMMLAEQCRHIEYLDEAIARLSREIEERTRPFHEVLELMETIPGVGRQSAEQIIAEIGTDMSRFPTAAHVASWAGMAPGNHESAGKRLSGRTRKGNKKLRACLVECARAAARTKNTYLSAKYHRIAKRRGANRASVAVGRTILEIIYSVLTRKAPYRELGADYWDQQREAAIVRQTVKRLEGLGYEVKLEKTSA | not soluble
MRVVAFVPGSISDQILFFPTLDDLKRYYPDAQIDVIVESQSKAAYRLSKSVHEVLTFDYSDHNSLADWGNLVGTIRDREYDVAMTTGESWFIGLFLWLTGIPTRIGYKGKGAGFLTNTIRRNTSQYVAAMYHDLLKPVGIKTPCPELTANVPKPDIQWAQQEQKRLGIHETGYILIYGGSSHSSQIDGADTSYPIASWQQIIQDCQHKQPELPIVLIKEADDENFVRVLLESCSNLKITSPDDIGKLTAIISGASLMLSIENGPLQLAVAVQTYTIALLSSTDADKLLPKSDKFLAIKSHSGKTVDIPPPTVLEKIWGG | not soluble
MRVVVLMGGRSSEREISLKTGKAVAKALRELGHEVYELDLDKELPCKLLEIKPDKVFIALHGRYGEDGTVQGLLEILDIPYTGSDTIASAVSIDKDFTKRIVKSLGINTPDWETFISEGDVLNTEWNKFPAVVKPVREGSSVGLKIVESLEELKEYALDLLKKTERVMVEEFVEGRDMTVGILKGEALPVVEIIPKKGVYDYECKYTKGMSEYRILKDEKLSKKLQEISLKISKFLSLKDFARIDFRVTKEGKIFFLEVNTIPGMTELSLLPMAAKEKGMDFKKLISIIIT | soluble
MSAAADRLNLTSGHLNAGRKRSSSSVSLKAAEKPFKVTVIGSGNWGTTIAKVVAENCKGYPEVFAPIVQMWVFEEEINGEKLTEIINTRHQNVKYLPGITLPDNLVANPDLIDSVKDVDIIVFNIPHQFLPRICSQLKGHVDSHVRAISCLKGFEVGAKGVQLLSSYITEELGIQCGALSGANIATEVAQEHWSETTVAYHIPKDFRGEGKDVDHKVLKALFHRPYFHVSVIEDVAGISICGALKNVVALGCGFVEGLGWGNNASAAIQRVGLGEIIRFGQMFFPESREETYYQESAGVADLITTCAGGRNVKVARLMATSGKDAWECEKELLNGQSAQGLITCKEVHEWLETCGSVEDFPLFEAVYQIVYNNYPMKNLPDMIEELDLHED | soluble
MSAAPLVGYSSSGSEDESEDGMRTRPGDGSHRRGQSPLPRQRFPVPDSVLNMFPGTEEGPEDDSTKHGGRVRTFPHERGNWATHVYVPYEAKEEFLDLLDVLLPHAQTYVPRLVRMKVFHLSLSQSVVLRHHWILPFVQALKARMTSFHRFFFTANQVKIYTNQEKTRTFIGLEVTSGHAQFLDLVSEVDRVMEEFNLTTFYQDPSFHLSLAWCVGDARLQLEGQCLQELQAIVDGFEDAEVLLRVHTEQVRCKSGNKFFSMPLK | soluble
MSAFSAINEEREIERDEFTPGIEPQATWCPGCGDFGVLKALKQAMPEVGKNPDEVALFTGIGCSGKLNSYFNSYGFHTIHGRSLPVARAAKLANPNLEVIAAGGDGDGYGIGGNHTIHTARENHDMTYIVFNNEIFGLTKGQTSPTSPKGHKSKTQPHGSAKSPIRPLSQQLNAGATYIARTAAVNPNQAKEIIAEAIEHDGFAHIDFLTQCPTWNKDAKHYVPYTDVQQSDEFDFDVSDRAEAAEMMRKTEERLYEGEVLTGRMYIEDERPSYGEEKRQIGEMPEEPLAERYFDEDAEWERTYDNLLEHHK | not soluble
MSAITAPLPTLDDLATLTLSIKAWGRELGFQEVGISGLDLAEHEQHLQRWLDAGYHGEMDYMAAHGSKRSHPDELVPGTLRVVSLRMDYLPGDTEMAQRLTEPEKAYVSRYALGRDYHKLIRKRLQQLAERIQQAIGPFGFRAFVDSAPVLEKAIAEQAGLGWIGKNTLVLNRKAGSFFFLGELFVDIPLPVDAPHATEHCGRCTACLDICPTAAFVGPYVLDARRCISYLTIELKTAIPEELRPLIGNRVFGCDDCQIVCPWNRFARPTDQSDFQPRHNLDNAGLAELFLWDEEKFLGSTEGSPLRRAGYERWLRNLAVGLGNAPSTIPVIEALQARRDYPSELVREHVEWALQRHGVAPL | not soluble
MSAKEVDFERESHLHAVMCFLTGQSGEKIVSIYPHRKPATKAPSKDPQPSSSNPGQCVKPVLTSVKDPSYGFGRVDTEFDMSLGMLAYVFKTQEIACNDGFDMKINNQRFVAYPKTWKARGESTNYQISIVFALKNGCEQHTASAYQTLSNKIAVSLVMLQNYFGFLEREDKWADNAEEPNKDHPLEEFAKTSFIVQPLAEMFEEVRNRGNIHKYLINFVELGFCDEAHALTKLNVVPKGRQEIDEIVRKMKPYHGILLLEDVWPTPDANPIVAKLLSHCSPDRSILDMSTASGIPIFEVFMIIRHLLQWTRAILIYPLCNTNIYTSATSPQPLDKMAEKFTAQFGNTIHLAAGLAHFNPPKTLDTFIRKNLPLHEQGVRAKLVVALLRHQMLMQLHQFYYILKPYSIAILPEPKEPCPAEFTKIIEESTLPNDVKGVVADICAEMLETTSYASVKRTLSLFVKVAPMMDGNHHLEEIKYKNNLDRTEIEGVFVSFKLVIATFRRPDFVAE | not soluble
MSALLPIINRLILQSPDSRSELAAFAGKTLTLNIAGLKLAGRITEDGLLSAGNGFADTEITFRNSAVQKILQGGEPGAGDIGLEGDLILGIAVLSLLGSLRSRASDELARIFGTQADIGSRAADIGHGIKQIGRNIAEQIGGFSRESESANIGNEALADCLDEISRLRDGVERLNERLDRLERDIWID | not soluble
MSALQSLRPALRTAYGLAVRSDIDLPELEPLPGDGAADLTVRRGALPELPGEGGFRTRFAPERAELWWQTVGTFRVEPGLVTASPHAGVSEDLVAYPLLGSVLALALEQLGLFTIHASAVSVGGHGVVMMGDKGAGKSTTATAMIRAGHPLIADDIVAVDEGFRLRPGFPQVKLSPAAAAAFDAPDAVHRPTVPEVPEKCRVLLPERFARGATPLKRIYRLERAPAGTEPAVISVSPIEALPLALRFAYVTRFGAEALNGAAGARHLRQAAAIAASGVLHRVIVPHALDRLPEVVALIERDAGAAALEHHHHHH | not soluble
MSATEKDKTPLLGVSQPISLAHPDSKDIAQTTLLIETLKKFGSYEPKEETEQRMEVLRNLNRLVKEWVKNVTAMKIPNGEGVNAGGKLFTFGSYRLGVHSSGADIDTLAVVPRHIDRSDFFTSFKEMLNNDPNVTELHGVEEAFVPVMKLKYSGVELDILFARLALKEVPDTQELSDDNLLRNLDQESVRSLNGCRVAEQLLKLVPRQKEFCVTLRAIKLWAKNHGIYSNSMGFFGGITWAILVARACQLYPNASPSRLVHRMFFIFSTWTWPHPVVLNEMNNDRNDIPTLCELVWDPRRKNTDRFHVMPIITPAFPEQNSTHNVTRSTATVIKNEICEALEICRDISEGKSKWTALFEEVNFFSRYKHFIALIMAAPNEEEELNYGGFLESRIRLLVQSLERNQDIIIAHNDPNKHKPSPNAKFDVNPENKRVTVWFIGLEFAEHAKTLDLTNEIQRFKTNVELQASNVKGIGPNCQVQIDMFYVKRNSLIQVISAADLRRGRRWKKVVPIATNTSVSSSTPRSVVRTTSTSSVPTTPTGLAAPKTPLSASVSATNEPDSTTNGTPLSRKRSMDEESSTTVTSQISDESVPKKKTRDDTLEENRVSMVVEVSNVVVEQRTKVVQEIVDLQADNGLNTSNGLEASEQKMEVPQSV | not soluble
MSAVEQFVSYCRDEIEIVARLVDLLEQEQKLLIRGESLQLEPLADRKSEVLDQLAAQSAQRGRLMESLGVQDKDTLYIWLADKPSACKEWTRLEDAVNRAQSINQLNAAFVDERLAQVESSLDVLRTAAASTLGYGPDGQPPELVSGRRLLGSA | not soluble
MSAYPKSYNPFDDDGEDEGARPAPWRDARDLPDGPDAPADRQQYLRQEVLRRAEATAASTSRSLALMYESEKVGVASSEELARQRGVLERTEKMVDKMDQDLKISQKHINSIKSVFGGLVNYFKSKPVETPPEQNGTLTSQPNNRLKEAISTSKEQEAKYQASHPNLRKLDDTDPVPRGAGSAMSTDAYPKNPHLRAYHQKIDSNLDELSMGLGRLKDIALGMQTEIEEQDDILDRLTTKVDKLDVNIKSTERKVRQL | soluble
MSDAHVLKSRLEWGEPAFTILDVRDRSTYNDGHIMGAMAMPIEDLVDRASSSLEKSRDIYVYGAGDEQTSQAVNLLRSAGFEHVSELKGGLAAWKAIGGPTEGIIESRLEHHHHHH | not soluble
